From patent US11788081 (STICHTING VU, dated 2023) come the findings set out here.

The test has as its target T1, KIX domain from the human CREB binding protein (KIX wt) (human, UniProt Q92793 587-672).
T1 construct: domain: KIX domain; Expressed as GST fusion in E. coli, GST removed by PreScission cleavage
Briefly: fluorescence polarization, FITC-labeled MLL peptide, protein titrated 70 µM-0 µM. The protocol: Binding of K1-t1 and K1-t2 to mixed lineage leukemia (MLL) transcription factor was evaluated using the FITC-labeled peptide FITC-020c-[…](Nle)[…]-NH2 (SEQ ID NO: 6). This sequence is derived from MLL and will be refereed as MLL peptide throughout. A 40 nM solution of MLL peptide in 25 mM HEPES (pH 7.4), 100 mM NaCl and 2 mM TCEP was prepared. A 3-fold dilution of KIX, K1-t1 and K1-t2 was performed in 14 steps on a 384-well-plate (black, round bottom, Corning) using the same buffer. 5 μL of 40 nM MLL peptide solution was then added, and the final 20 μL solution was incubated at r.t. A final protein range of 70 μM-0 μM was used. After 1 h-incubation, fluorescence polarization was measured using a Spark 20M plate reader (Tecan) with λ(ex)=485 nm and λ(em)=525 nm. Kd were determined by applying nonlinear regression analysis of dose-response curves in GraphPad Prism software.
Background: In fluorescence polarisation assays a small probe gives low polarisation when free and higher when bound to something large.

Non-standard residues stand in square brackets, D forms with d. *: point of attachment. FITC = O=C1OC2(c3ccc(O)cc3Oc3cc(O)ccc32)c2ccc(NC(=S)*)cc21; Nle = CCCC[C@H](N)C(=O)O; AEEA = NCCOCCOCC(=O)O

T1 sequence (Q92793 587-672 limits assumed): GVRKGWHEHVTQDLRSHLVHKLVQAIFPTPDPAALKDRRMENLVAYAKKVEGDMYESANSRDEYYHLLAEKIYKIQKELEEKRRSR

B1: MLL peptide FITC-O2Oc-GNILPSDI(Nle)DFVLKNTP-NH2 (peptide)
peptide: {FITC-AEEA}-GNILPSDI[Nle]DFVLKNTP-NH2
notes: Synthetic peptide made by Fmoc SPPS on Rink amide resin; Used at 10 nM final (5 uL of 40 nM in 20 uL) in the FP assay; also called mixed lineage leukemia (MLL) transcription factor derived peptide
By Kd is commonly meant the constant that tells how readily two partners part at equilibrium. For B1, binding was characterised by a dissociation constant (Kd) of 600 nM.
